Assay results reported in patent publication US20240150805A1, “Glycosylated Opioids” (River Stone Biotech ApS, priority 2021, published 2024).

B1: KAF3968553: subfamily 72 UGT, sequence homolog of Qs72S_1 (protein, listed as Castanea mollissima)
chain: MEQKPHIALLPSPGMGHLIPLVEFAKLFVLHHDFRITCIIPVLGSPSKAMKAVLQALPTTIDHVFLPPVILEEEEIKGLKFEVQTILTLTRSLPPLRDVLKSTRFSAFVVDPFGIDALDIAKELKISPYIFFPTNAFVLSLMFHLPKLDETVSCEYRDLPEPLKLPGCIPIHGRDLIEPVQDRTSELYKMFLRNVKRFRLAEGIIVNTFMELEGSAIKALLDEEAKNLPLYPIGPIQSGSSNLQVDKSESDCLRWLDNQPRGSVLFVCFGSGGTLSYDQTNELALGLELSGQKFLWVVRTPDNESADAAYLSDQTLDNNPLAFLPKGFVERTEGQGLAVPSWAPQAQVLSHGSTGGFLTHCGWNSTLESIMQGIPLIAWPLYAEQKMNAPLLAEDLKVALRPKTNKNGLIDREEIAKVVKGLMVGEEGKKVHNRMKDIKIAAEKALSADGSSTKTLSELASQWKNHPGF
B2: XP_023875154: subfamily 72 UGT, sequence homolog of Qs72S_1 (protein)
chain: MLSKMEQKPHIALLPSLGMGHLIPLVEFAKQFVLHHDFHITCIIPVLGSPSKAMKAVLQALPTAIDHVFLPPVKLEEEEIKGLKFEVQTILTLTRSLPPLREVLKSTRFSAFVVDPFGIDALDIAKELNISPYIFFPTNAFALSLIFHLPKLDETVSCEYRDLPEPLKLPGCIPIHGRDLLEPVQDRTSELYKMFLRNAKRFRLAEGIIVNTFMELEGSAIKALLDEEAKNLPLYPIGPIQSGSSNQVDKSESDCLRWLDNQPHGSVLFVCFGSGGTLSYDQTNELALGLELSGQKFLWVVRTPNNESADAAYLSDQTLNNNLLAFLPKGFVERTEGQGLAVPSWAPQAQVLSHGSTGGFLTHCGWNSTLESIMQGIPLIAWPLYAEQKMNAPLLAEDLKVALRPKTNKNGLIDREEIAKVVKGLMIGEEGKKVYNRMKDIKMAAEKALSADGSSTKALSELASQWKNHPGF
modifications: Quercus suber
B3: PWA70520: subfamily 71 UGT (protein, listed as Artemisia annua)
chain: MTTLELVFIPSPGAGHLPPTVELAKLLLDHDQRLSVTIIIMNLPFEAEQVTETPISTPRLNFIYVANEDSSKDLISPHTFMSAFLEHQKPKLKNIIRDITESDSVRLVGFIVDMFCIAMIDVANEFGVPTYVYFTSSASALGLMFHLQAKCDDEEYDVTDLKDSDLMLSIPSYVKPIPAKLLPSVLFDKQGGSKMFIDLAKKFRESEGIIINSFQELESHGLEFLIKGDPNIPPVFPVGPILNLKNTKNDGKTTDIMAWLDNQPKSSVVFLCFGSMGSFGEKQVKEIAVALERSEHRFLWSLRRPPSKEVMRLPEEYENFKEVLPEGFLECTSNLGKVIGWAPQTSVLSHPSLGGFVSHCGWNSTLESIWFGVPVAAWPLYAEQQINAFQLVMELGIAAEIKIDYKSNIGPGGGSNEMLVKADEIESGIRRLMNDDDMRRNVKEMKHMSRLTVTEGGSSYASIKRFIELVITNT
B4: SEQ ID NO: 212: UGT fused N-terminally to a solubility tag (protein)
chain: METHINLKVSDGSSEIFFKIKKTTPLRRLMEAFAKRQGKEMDSLRFLYDGIRIQADQTPEDLDMEDNDIIEAHREQIGGGGGGSEQKPHIALLPSPGMGHLIPLVEFAKQFVLHHDFHITCIIPVLGSPSKAMKAVLQALPTTIDHVFLPPVILEEEEIKGLKFEVQTILTLTRSLPPLREVLKTTRFSAFVVDPFGIDALDIAKELNISPYIFFPSNAFALSLIFHLPKLDETVSCEYRDLPEPLKLPGCIPIHGRDLIEPVQDRTSELYKMFLRNAKRFRLAEGIIVNTFMELEGSAIKALLDEEAKNLPLYPIGPIQSGSSNLQVDKSVSDCLRWLDNQPHGSVLFVCFGSGGTLSYDQTNELALGLELSGQKFLWVVRTPNNESADAAYLSDQILDNNPLDFLPKGFVERTEGQGLAVPSWAPQAQVLSHGSTGGFLTHCGWNSTLESIMQGIPLIAWPLYAEQKMNAPLLAEDLKVALRPKTNKSGLIDQEEIAKVVKGLMIGEEGKKVYNRMKDIKMAAEKALSADGSSTKALSELASQWKNHPGF
B5: SEQ ID NO: 204: UGT fused N-terminally to a solubility tag (protein)
chain: MKAQYEDGKQYTTLEKPVAGAPQVLEFFSFFCPHCYQFEEVLHISDNVKKKLPEGVKMTKYHVNFMGGDLGKDLTQAWAVAMALGVEDKVTVPLFEGVQKTQTIRSASDIRDVFINAGIKGEEYDAAWNSFVVKSLVAQQEKAAADVQLRGVPAMFVNGKYQLNPQGMDTSNMDVFVQQYADTVKYLSEKKGGGGSEQKPHIALLPSPGMGHLIPLVEFAKQFVLHHDFHITCIIPVLGSPSKAMKAVLQALPTTIDHVFLPPVILEEEEIKGLKFEVQTILTLTRSLPPLREVLKTTRFSAFVVDPFGIDALDIAKELNISPYIFFPSNAFALSLIFHLPKLDETVSCEYRDLPEPLKLPGCIPIHGRDLIEPVQDRTSELYKMFLRNAKRFRLAEGIIVNTFMELEGSAIKALLDEEAKNLPLYPIGPIQSGSSNLQVDKSVSDCLRWLDNQPHGSVLFVCFGSGGTLSYDQTNELALGLELSGQKFLWVVRTPNNESADAAYLSDQILDNNPLDFLPKGFVERTEGQGLAVPSWAPQAQVLSHGSTGGFLTHCGWNSTLESIMQGIPLIAWPLYAEQKMNAPLLAEDLKVALRPKTNKSGLIDQEEIAKVVKGLMIGEEGKKVYNRMKDIKMAAEKALSADGSSTKALSELASQWKNHPGF
B6: XP_023914549: subfamily 72 UGT, sequence homolog of Qs72S_1 (protein)
chain: MEQKPHIALLPSPGMGHLIPLVEFAKQFVLHHDFRITCIVPVLGSPSKAMKAVLQALPTTIDHVFLPPVKLEEEEIRGLKFEVQTILTLTRSLPPLREVLKSTRFSAFVVDPFGIDALDIAKELNISPYIFFPTNAFALSLIFHLPKLDKTVSCEYRDLPEPLKLPGCIPIHGRDLSEPVQDRTSELYKMFLRNAKRFRLAEGIIVNTFMELERSAIKALLDEEAKNLPLYPIGPIQSGSSNQVDKSESDCLRWLENQPHGSVLFVCFGSGGTLSYDQTNELALGLELSGQKFLWVVRTPNNESADAAYLSDQTLDNNPLAFLPKGFVERTEGQGLAVPSWAPQAQVLSHGSTGGFLTHCGWNSILESVMQGIPLIAWPLYAEQKMNAVLLAEDLKVALRPKTNKNGLIDREEIAKVVKGLMVGEEGKKVRNRMKDIKIAAVKALSADGSSTKALSELASQWKNHPGF
modifications: Quercus suber

Legend:
[1] = In vitro glucosylation of oripavine and nororipavine by purified UGTs; format: biochemical; details: for specificity for nororipavine compared to oripavine: 72UGTs, test setup of example 3, FIG. 8; for preference for nororipavine glucosylation compared to oripavine glucosylation: purified UGT, 500 μM substrate, overnight at 30° C., HPLC
Description: Glucosylation samples of a 20 μL total reaction volume for each UGT to be tested were prepared in 96-well microtiter plates as follows:
The microtiter plate was sealed with an adhesive seal, spun shortly and the glucosylation samples were incubated overnight at 30° C. After incubation, glucosylation reaction was terminated by adding 3 volumes (60 μL) of ice-cold 100% methanol the reaction volume and mixing well, followed by centrifugation of the plate at 3000 rpm for 5 min at 4° C. and analysis by HPLC.
The 72UGTs of Table 5 were tested in vitro to using the test setup of example 3 identify those having having specificity toward nororipavine.

[2] = Effect of N-terminal tags on UGT activity in yeast bioconversion of oripavine; format: cell-based, Saccharomyces cerevisiae; details: UGT with solubility tag

Molecule	specificity for nororipavine compared to oripavine [1]	preference for nororipavine glucosylation compared to oripavine glucosylation [1]	amounts of glucosylated nororipavine compared to the untagged UGT alone [2]
B1	particularly high specificity	particularly strong preference for Nororipavine glucosylation	
B2	particularly high specificity	particularly strong preference for Nororipavine glucosylation	
B3		preference for glucosylation of nororipavine	
B4			higher
B5			higher
B6		particularly strong preference for Nororipavine glucosylation	
